{
  "source": "paper PMC11169542",
  "about": "“A probe for NIR-II imaging and multimodal analysis of early Alzheimer’s disease by targeting CTGF” (Nature Communications, 2024)",
  "key": {"CTGF [1]": {"system": "CTGF", "assay": "DGC labelling of CTGF in cells by fluorescence imaging (CLSM)", "assay_type": "cell-based", "settings": "for FL Intensity of DGC per cell: 55 μM DGC 60 min, CLSM", "description": "The U87MG, SH-SY5Y, and CTX TNA2 cells in confocal dishes were fixed with 4% paraformaldehyde solution (PFA) for 30 min. Next, the cells were washed with cold PBS three times, and 3% BSA in PBS solution was introduced to the cells to block the nonspecific recognition sites. Then, the cells were incubated with 55 μM DGC for 60 min at room temperature. The control cells were only incubated with a culture medium. Next, the nuclei were stained with 5 μg/mL DAPI solution for 5 min. Finally, the cells were observed by a confocal laser scanning microscope (CLSM, PerkinElmer, USA). The fluorescence intensity of each cell was measured by ImageJ software, the red channel was extracted by clicking Split Channels, and the red fluorescent region, except the nucleus was selected by Freehand selections. Then the average fluorescence intensity in this region was measured and recorded for statistical analysis.\nTo further determine the specificity of DGC to CTGF, immunofluorescence staining was performed with CTGF antibodies to determine the location of CTGF in cells. First, U87MG cells in confocal dishes were fixed with 4% PFA for 30 min. Next, the cells were washed with PBS three times, and 3% bovine serum albumin (BSA) in PBS solution. Then, the cells were incubated with CTGF antibody (dilution 1:100, Abcam, Cat#ab6992) in PBS for 4 h at 4 °C, and FITC-labeled Goat Anti-Rabbit IgG (H + L) (1: dilution 1:200, Bioss, Cat#bs-0370R-FITC) in 3% BSA solution was added to the cells for another 30 min at 37 °C in the dark. Subsequently, 55 μM DGC were incubated with the cells for 1 h. Finally, the cells were stained with DAPI for 5 min and washed with PBS before the CLSM image (Nikon).\nMoreover, a binding site blocking study was performed to confirm the specificity of the DGC to CTGF. First, U87MG cells were fixed with 4% PFA. Then, a PBS solution containing 3% BSA was used to block the nonspecific recognition sites for 30 min. After BSA blocking, the cells were pre-incubated with 5 mM of free DAG peptide for 1 h, followed by 55 μM DGC added for 60 min. Then, DAPI (5 μg/mL) was added to U87MG cells to stain the nuclei. Finally, the cells were imaged by the CLSM system."}, "CTGF [2]": {"target": "T1, CTGF (Mus musculus, UniProt P29268)", "T1 construct": "brain sections of the age-matched wild-type C57BL/6J mice were used as controls; from tissue; host or cells: brain of APP/PS1 transgenic and wild-type C57BL/6J mice (sections, living animal, perfused isolated brain)", "T1 sequence (P29268 26-348)": "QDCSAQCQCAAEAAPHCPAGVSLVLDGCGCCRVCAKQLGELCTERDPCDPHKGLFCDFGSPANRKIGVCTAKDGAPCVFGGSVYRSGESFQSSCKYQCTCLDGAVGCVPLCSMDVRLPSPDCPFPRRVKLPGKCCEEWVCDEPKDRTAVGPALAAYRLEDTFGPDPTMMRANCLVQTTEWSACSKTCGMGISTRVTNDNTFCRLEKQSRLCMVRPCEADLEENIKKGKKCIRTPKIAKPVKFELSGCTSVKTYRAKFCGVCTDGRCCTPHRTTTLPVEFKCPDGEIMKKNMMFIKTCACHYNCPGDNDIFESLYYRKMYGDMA", "assay": "Ex vivo NIR-II imaging of perfused brains after DGC injection", "assay_type": "in vivo, APP/PS1 mice", "settings": "20 mg/kg i.v., saline perfusion, relative to 1 month", "description": "(§1) Mice were then perfused intracardially with saline and 4% PFA, and major organs (including the brain, heart, liver, spleen, lung, and kidney were isolated. The dissociated brains were performed NIR-II imaging ex vivo using the same method as in vivo imaging (n = 3). All isolated organs were also imaged by the NIR-II imaging system (λ ex = 808 nm, 1000 nm longpass (LP) filter (Edmund Optics)). And then, the brains were kept in 4% PFA overnight and embedded with paraffin. Sections with 5-μm thickness were cut and analyzed by immunostaining with antibodies to CTGF (dilution 1: 50, Abcam, Cat#ab6992), GFAP (dilution 1:100, Proteintech, Cat#16825-1-AP), CD31 (dilution 1:200, Beyotime, Cat#AF6408), Neun (dilution 1:300, abcam, Cat# ab177487), and Iba 1 (dilution 1:50, Beyotime, Cat# AF7143), respectively."}, "CTX TNA2 cells": {"system": "CTX TNA2 cells", "assay": "Cytotoxicity of DGC (CCK-8)", "assay_type": "cell-based", "parameters": "key: viability relative to control cells (control = 1)", "settings": "200 μM (Au content), 24 h, CCK-8, normalized to control"}, "[3]": {"assay": "Biodistribution of DGC in organs by ex vivo NIR-II imaging", "parameters": "species or system APP/PS1 and wild-type mice", "settings": "ex vivo NIR-II observation of major organs", "description": "as §1"}, "CTGF [4]": {"target": "T1, CTGF", "assay": "ICP-MS of Au content in DGC-labelled mouse brain sections", "parameters": "species or system APP/PS1 and wild-type C57BL/6J mice", "description": "The DGC in the brain section was measured by ICP-MS. Briefly, the brain sections were digested with 5 mL mix solution (HNO3 and H2O2 = 3:1) overnight. Then, each section was digested at a mild boiling temperature until the solution was evaporated to 0.1–0.2 mL and added 5 mL aqua regia (HCl: HNO3 = 3:1) overnight. Then each section was digested at a mild boiling temperature until the solution was evaporated to 0.1– 0.2 mL and diluted by 2% HNO3 and 1% HCl to the final volume."}},
  "note": "Ends that are not written are not given here.",
  "data": [
    {"substance": "DGC: CTGF-targeting peptide-coated gold nanocluster: one Au26 gold nanocluster coated by eight DAG cyclic peptides, NIR-II and red fluorescence (CDAGRKQKC; also: cyclic peptide, ring not given here, eight peptides on one Au26 nanocluster via Cys Au-S bonds)", "values": [
      {"measurement": "labelling of CTGF after blocking with free DAG peptide", "setting": "CTGF [1]; U87MG cells pre-incubated with 5 mM free DAG 1 h, then 55 μM DGC 60 min", "result": "cannot label CTGF in cells pre-blocked by free DAG peptides"},
      {"measurement": "co-localization coefficient (Pearson's correlation coefficient) of DGC and CTGF antibody", "setting": "CTGF [1]; U87MG cells, ImageJ", "result": 0.946},
      {"measurement": "FL Intensity of DGC per cell", "setting": "CTGF [1]; fixed CTX TNA2 cells, replicate 1", "result": 5.779},
      {"measurement": "FL Intensity of DGC per cell", "setting": "CTGF [1]; fixed CTX TNA2 cells, replicate 2", "result": 3.821},
      {"measurement": "FL Intensity of DGC per cell", "setting": "CTGF [1]; fixed CTX TNA2 cells, replicate 3", "result": 8.33},
      {"measurement": "FL Intensity of DGC per cell", "setting": "CTGF [1]; fixed SH-SY5Y cells, replicate 1", "result": 14.6594},
      {"measurement": "FL Intensity of DGC per cell", "setting": "CTGF [1]; fixed SH-SY5Y cells, replicate 2", "result": 16.8684},
      {"measurement": "FL Intensity of DGC per cell", "setting": "CTGF [1]; fixed SH-SY5Y cells, replicate 3", "result": 12.4094},
      {"measurement": "FL Intensity of DGC per cell", "setting": "CTGF [1]; fixed U87MG cells, replicate 1", "result": 36.9955},
      {"measurement": "FL Intensity of DGC per cell", "setting": "CTGF [1]; fixed U87MG cells, replicate 2", "result": 33.5045},
      {"measurement": "FL Intensity of DGC per cell", "setting": "CTGF [1]; fixed U87MG cells, replicate 3", "result": 35.4955},
      {"measurement": "ex vivo NIR-II fluorescence (FL) intensity in brain", "setting": "CTGF [2]; 1-month-old APP/PS1 mice, brain 1", "result": 1},
      {"measurement": "ex vivo NIR-II fluorescence (FL) intensity in brain", "setting": "CTGF [2]; 1-month-old APP/PS1 mice, brain 2", "result": 1},
      {"measurement": "ex vivo NIR-II fluorescence (FL) intensity in brain", "setting": "CTGF [2]; 1-month-old APP/PS1 mice, brain 3", "result": 1},
      {"measurement": "ex vivo NIR-II fluorescence (FL) intensity in brain", "setting": "CTGF [2]; 2-month-old APP/PS1 mice, brain 1", "result": 1.473},
      {"measurement": "ex vivo NIR-II fluorescence (FL) intensity in brain", "setting": "CTGF [2]; 2-month-old APP/PS1 mice, brain 2", "result": 1.458},
      {"measurement": "ex vivo NIR-II fluorescence (FL) intensity in brain", "setting": "CTGF [2]; 2-month-old APP/PS1 mice, brain 3", "result": 1.501},
      {"measurement": "ex vivo NIR-II fluorescence (FL) intensity in brain", "setting": "CTGF [2]; 3-month-old APP/PS1 mice, brain 1", "result": 1.722},
      {"measurement": "ex vivo NIR-II fluorescence (FL) intensity in brain", "setting": "CTGF [2]; 3-month-old APP/PS1 mice, brain 2", "result": 1.714},
      {"measurement": "ex vivo NIR-II fluorescence (FL) intensity in brain", "setting": "CTGF [2]; 3-month-old APP/PS1 mice, brain 3", "result": 1.766},
      {"measurement": "ex vivo NIR-II fluorescence (FL) intensity in brain", "setting": "CTGF [2]; 6-month-old APP/PS1 mice, brain 1", "result": 2.766},
      {"measurement": "ex vivo NIR-II fluorescence (FL) intensity in brain", "setting": "CTGF [2]; 6-month-old APP/PS1 mice, brain 2", "result": 2.744},
      {"measurement": "ex vivo NIR-II fluorescence (FL) intensity in brain", "setting": "CTGF [2]; 6-month-old APP/PS1 mice, brain 3", "result": 2.849},
      {"measurement": "ex vivo NIR-II fluorescence (FL) intensity in brain", "setting": "CTGF [2]; 9-month-old APP/PS1 mice, brain 1", "result": 3.728},
      {"measurement": "ex vivo NIR-II fluorescence (FL) intensity in brain", "setting": "CTGF [2]; 9-month-old APP/PS1 mice, brain 2", "result": 3.62},
      {"measurement": "ex vivo NIR-II fluorescence (FL) intensity in brain", "setting": "CTGF [2]; 9-month-old APP/PS1 mice, brain 3", "result": 3.948},
      {"measurement": "Cell viability", "setting": "CTX TNA2 cells; replicate 1", "result": 1.4709},
      {"measurement": "Cell viability", "setting": "CTX TNA2 cells; replicate 2", "result": 1.567},
      {"measurement": "Cell viability", "setting": "CTX TNA2 cells; replicate 3", "result": 1.589},
      {"measurement": "metabolism and excretion route", "setting": "[3]", "result": "mainly metabolized by the liver and excreted through the kidney and liver"},
      {"measurement": "ICP-MS Au content per section", "setting": "CTGF [4]; 3-month-old APP/PS1 mouse brain section incubated with DGC, section 1", "result": 36.3},
      {"measurement": "ICP-MS Au content per section", "setting": "CTGF [4]; 3-month-old APP/PS1 mouse brain section incubated with DGC, section 2", "result": 50.92},
      {"measurement": "ICP-MS Au content per section", "setting": "CTGF [4]; 3-month-old APP/PS1 mouse brain section incubated with DGC, section 3", "result": 74.61},
      {"measurement": "ICP-MS Au content per section", "setting": "CTGF [4]; 9-month-old APP/PS1 mouse brain section incubated with DGC, section 1", "result": 87.62},
      {"measurement": "ICP-MS Au content per section", "setting": "CTGF [4]; 9-month-old APP/PS1 mouse brain section incubated with DGC, section 2", "result": 82.72},
      {"measurement": "ICP-MS Au content per section", "setting": "CTGF [4]; 9-month-old APP/PS1 mouse brain section incubated with DGC, section 3", "result": 97.01},
      {"measurement": "ICP-MS Au content per section", "setting": "CTGF [4]; WT mouse brain section incubated with DGC, section 1", "result": 11.2},
      {"measurement": "ICP-MS Au content per section", "setting": "CTGF [4]; WT mouse brain section incubated with DGC, section 2", "result": 23.11},
      {"measurement": "ICP-MS Au content per section", "setting": "CTGF [4]; WT mouse brain section incubated with DGC, section 3", "result": 12.01}
    ]}
  ]
}
